± gives the standard deviation of the averaged measurements.
Tested on: ATP
Assay: switch fluorescence ratio, 500 uM ATP over buffer (Cy3 cluster intensity, sum of 5 cycles each) (fold (ratio)); higher = stronger signal-on switching upon ATP binding; sequences stand for … in TCGTCGGCAGCGTCAGATGTGTATAAGAGACAGTTTTTTTTTTTTTTTTTTTTTTTTT…TC
Conditions: aptamer strand: ATP DNA aptamer (quencher-CACCTGGGGGAGTATTGCGGAGGAAGG + anchor), 100 nM annealed; ATP concentration: 500 uM
Summary of the method: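 After annealing to 100 nM quencher-labelled ATP aptamer, Cy3-labelled switching-strand clusters on a modified Illumina MiSeq flow-cell were imaged in selection buffer. A second image followed after 15 min with 500 uM ATP at 22 °C, and five such buffer/ATP cycles were done, each separated by NaOH stripping and re-annealing. The fluorescence ratio, averaged per switch-domain sequence, is summed target-cycle over summed buffer-cycle Cy3 intensity per cluster, with clusters outside 100-1000 RFU excluded.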
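Further: ATP exposure 15 min at 22 °C before imaging.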

## TATCGGTAGC
  switch fluorescence ratio: 1.017 ± 0.0025

## GAATGACCCG
  switch fluorescence ratio: 1.11 ± 0.012

## AGGGGGGTCG
  switch fluorescence ratio: 0.992 ± 0.072

## CAGGGAGGGA
  switch fluorescence ratio: 0.992 ± 0.02

## CGTGTTTTTG
  switch fluorescence ratio: 0.986 ± 0.02

## TCAGGGACCG
  switch fluorescence ratio: 1.03 ± 0.026

## GACGGCTGCT
  switch fluorescence ratio: 1.01 ± 0.0042

## TGTAAACCGG
  switch fluorescence ratio: 1.07 ± 0.042

## TATCTTACGA
  switch fluorescence ratio: 1.02 ± 0.041

## ACTCTGTTTT
  switch fluorescence ratio: 1.01 ± 0.012

## GTACCCCAGG
  switch fluorescence ratio: 3.5 ± 3.3

## TCCTGAAAAC
  switch fluorescence ratio: 1.1 ± 0.087

## TCCAGAAAGG
  switch fluorescence ratio: 1.014 ± 0.0031

## CATGGAAGGG
  switch fluorescence ratio: 0.9699 ± 0.0068

## TAGTTAATAT
  switch fluorescence ratio: 1 ± 0.019

## ATTATTATGG
  switch fluorescence ratio: 1.01 ± 0.015

## GATTAAGGGC
  switch fluorescence ratio: 1.0033 ± 6.6e-05

## CGGAGGACAA
  switch fluorescence ratio: 0.976 ± 0.012

## ATTCTTTTGC
  switch fluorescence ratio: 1.03 ± 0.06

## TGATTCGGCG
  switch fluorescence ratio: 1.03 ± 0.069

## GCTTTAGAGG
  switch fluorescence ratio: 1.004 ± 0.0053

## GATGGGGGCA
  switch fluorescence ratio: 1 ± 0.086

## TCTTGGGATT
  switch fluorescence ratio: 0.981 ± 0.0029

## GACGTAGT
  switch fluorescence ratio: 1.01 ± 0.022

## TTTTCTTATC
  switch fluorescence ratio: 1.02 ± 0.048

## CGTAGTACGC
  switch fluorescence ratio: 1.12 ± 0.04

## AAGAAAACTT
  switch fluorescence ratio: 1.042 ± 0.0089

## AATTTTAGTG
  switch fluorescence ratio: 0.986 ± 0.02

## AGGATAGGGT
  switch fluorescence ratio: 1.02 ± 0.05

## GCGTATGGGG
  switch fluorescence ratio: 0.977 ± 0.027

## TCCTTGGTCG
  switch fluorescence ratio: 1.04 ± 0.031

## AGGGGGAAGT
  switch fluorescence ratio: 0.99 ± 0.045

## CGGGTTGGGT
  switch fluorescence ratio: 1.01 ± 0.049

## GTGTTAGGTT
  switch fluorescence ratio: 1.01 ± 0.017

## GAGGAGGATG
  switch fluorescence ratio: 0.987 ± 0.013

## AGGGTACGGG
  switch fluorescence ratio: 1.063 ± 0.0037

## AAAGGATTTG
  switch fluorescence ratio: 0.97 ± 0.0034

## TGCTGAGTTT
  switch fluorescence ratio: 1.01 ± 0.05

## AATTGGTGGT
  switch fluorescence ratio: 0.965 ± 0.032

## GAAAGCCCGT
  switch fluorescence ratio: 0.989 ± 0.021

## ATTGAAGGCA
  switch fluorescence ratio: 0.966 ± 0.011

## TGATTGAGAG
  switch fluorescence ratio: 1.016 ± 0.0025

## GTGGGGGGGA
  switch fluorescence ratio: 1.01 ± 0.023

## CATTGGCGTA
  switch fluorescence ratio: 1.02 ± 0.023

## CTCGCCAGGG
  switch fluorescence ratio: 1.41 ± 0.032

## GTGTAAGACC
  switch fluorescence ratio: 1.03 ± 0.027

## TTGGCAAATG
  switch fluorescence ratio: 0.988 ± 0.025

## AAGGGGGGTT
  switch fluorescence ratio: 1.01 ± 0.036

## GGGAGCGTTG
  switch fluorescence ratio: 1.01 ± 0.016

## ATAGAGGAGG
  switch fluorescence ratio: 1 ± 0.021

## TCCATATGCT
  switch fluorescence ratio: 0.9941 ± 0.0093

## GGGGCGCGAC
  switch fluorescence ratio: 0.993 ± 0.085

## TTAGGCCAGG
  switch fluorescence ratio: 1.05 ± 0.017

## GTTGTTTAGT
  switch fluorescence ratio: 0.994 ± 0.026

## GCGCTATATG
  switch fluorescence ratio: 1.16 ± 0.049

## ATCATACACT
  switch fluorescence ratio: 1.06 ± 0.018

## ATTTTGGGTC
  switch fluorescence ratio: 0.991 ± 0.047

## AAACGATTTA
  switch fluorescence ratio: 1.018 ± 0.0055

## GCTTCCGGGG
  switch fluorescence ratio: 1.27 ± 0.06

## ATAGGGCG
  switch fluorescence ratio: 0.987 ± 0.011

## TTTAACTGA
  switch fluorescence ratio: 1.04 ± 0.044

## TAGGTGTGTG
  switch fluorescence ratio: 0.984 ± 0.024

## ATGATATTTG
  switch fluorescence ratio: 1.009 ± 0.006

## CGGGAGGGAA
  switch fluorescence ratio: 1.02 ± 0.023

## GTCCAAAAAC
  switch fluorescence ratio: 1.15 ± 0.038

## TTTGGGCTCC
  switch fluorescence ratio: 0.98 ± 0.018

## TGCGAAACTT
  switch fluorescence ratio: 1.07 ± 0.011

## AGTATTAATG
  switch fluorescence ratio: 1 ± 0.04

## GTGTGTTAAC
  switch fluorescence ratio: 0.9738 ± 0.0095

## TGGTTGAGAC
  switch fluorescence ratio: 0.988 ± 0.016

## TTACTTGGGA
  switch fluorescence ratio: 1 ± 0.012

## TCGTATAGAG
  switch fluorescence ratio: 1 ± 0.017

## GAGGGGTGCG
  switch fluorescence ratio: 1.01 ± 0.025

## AATGTTCATG
  switch fluorescence ratio: 1.031 ± 0.0061

## ATAGAGGGGG
  switch fluorescence ratio: 0.996 ± 0.03

## TAAAGGGCGA
  switch fluorescence ratio: 0.999 ± 0.027

## TGGGGGCGTG
  switch fluorescence ratio: 0.9502 ± 0.00056

## TTTCATTGGT
  switch fluorescence ratio: 1 ± 0.027

## AGTTGGTCCT
  switch fluorescence ratio: 1.01 ± 0.017

## GATTTGGGGT
  switch fluorescence ratio: 1 ± 0.033

## TGGTGAAAAG
  switch fluorescence ratio: 0.97 ± 0.059

## TGATTAGGGC
  switch fluorescence ratio: 1.01 ± 0.017

## TTTTTGTCGC
  switch fluorescence ratio: 0.992 ± 0.025

## TCAAGATTAT
  switch fluorescence ratio: 0.994 ± 0.027

## TTGTGTGGTG
  switch fluorescence ratio: 0.98 ± 0.011

## TCTCTTCCGT
  switch fluorescence ratio: 1.22 ± 0.056

## GAGTGTTGGG
  switch fluorescence ratio: 1.004 ± 0.0052

## TAAATTTTTG
  switch fluorescence ratio: 1.07 ± 0.097

## GAGGGTTTGT
  switch fluorescence ratio: 0.973 ± 0.039

## TGATTTTTTT
  switch fluorescence ratio: 1.01 ± 0.031

## TTTCAGGTGT
  switch fluorescence ratio: 2.15 ± 0.98

## GGTGTTTTTA
  switch fluorescence ratio: 1.07 ± 0.067

## AGAAGTAAGA
  switch fluorescence ratio: 0.998 ± 0.0065

## ATAAATGTCA
  switch fluorescence ratio: 1.01 ± 0.026

## TATGTAGAAG
  switch fluorescence ratio: 1 ± 0.027

## TGCTATAATG
  switch fluorescence ratio: 1.02 ± 0.021

## ATTGACCCCT
  switch fluorescence ratio: 1.08 ± 0.015

## CGGTTCGCGA
  switch fluorescence ratio: 1.03 ± 0.019

## GTTGTCTAAT
  switch fluorescence ratio: 0.9991 ± 0.0073

## ACGTGCGGGC
  switch fluorescence ratio: 1.05 ± 0.013

## TTTCTGGCAA
  switch fluorescence ratio: 1.32 ± 0.38

## TTGTTCGTAG
  switch fluorescence ratio: 0.981 ± 0.034

## GAAGGTGGGC
  switch fluorescence ratio: 0.962 ± 0.028

## TCGATGTGTT
  switch fluorescence ratio: 0.9592 ± 0.0086

## TCGGTGATAC
  switch fluorescence ratio: 4.52 ± 1.3

## AGTCGGGGTA
  switch fluorescence ratio: 1.02 ± 0.027

## TGCCTTGCTT
  switch fluorescence ratio: 1.01 ± 0.023

## ACGTCGTCGG
  switch fluorescence ratio: 0.964 ± 0.018

## ATAGAATGGT
  switch fluorescence ratio: 0.9829 ± 0.00046

## TATTTCATAT
  switch fluorescence ratio: 1 ± 0.013

## TACAAATGTT
  switch fluorescence ratio: 1 ± 0.018

## TTTGGTTTAT
  switch fluorescence ratio: 0.982 ± 0.04

## TTGGTGTTGC
  switch fluorescence ratio: 0.9916 ± 0.0057

## TAAGGTATTA
  switch fluorescence ratio: 0.972 ± 0.019

## TAAAAGGTAC
  switch fluorescence ratio: 1.07 ± 0.07

## GCGGATTGTG
  switch fluorescence ratio: 1.032 ± 0.0053

## TCTTTGCGCC
  switch fluorescence ratio: 1.06 ± 0.019

## TAACCGATGT
  switch fluorescence ratio: 1.01 ± 0.016

## CACCTTTATT
  switch fluorescence ratio: 1.018 ± 0.0096

## CACGTGATTG
  switch fluorescence ratio: 1.02 ± 0.02

## AGGATTTATA
  switch fluorescence ratio: 0.991 ± 0.086

## AGACTTTAGT
  switch fluorescence ratio: 1.01 ± 0.036

## TAGGTCAGAA
  switch fluorescence ratio: 0.989 ± 0.025

## AACGGGGTAA
  switch fluorescence ratio: 0.948 ± 0.037

## GCGGAGAGTT
  switch fluorescence ratio: 1.01 ± 0.019

## GACAGGGGAG
  switch fluorescence ratio: 1 ± 0.018

## TATTTAGTAT
  switch fluorescence ratio: 0.99 ± 0.045

## AGTATTAGAA
  switch fluorescence ratio: 0.978 ± 0.012

## CGGTTTTGGG
  switch fluorescence ratio: 0.977 ± 0.012

## GTGTTTAAAG
  switch fluorescence ratio: 0.98 ± 0.02

## TAAATTTTTA
  switch fluorescence ratio: 0.986 ± 0.052

## TGCGATGGTC
  switch fluorescence ratio: 1.18 ± 0.065

## GTGCGGTGGC
  switch fluorescence ratio: 1.04 ± 0.038

## GTTCGGTATG
  switch fluorescence ratio: 0.984 ± 0.033

## TCGTATATTA
  switch fluorescence ratio: 1.02 ± 0.013

## TGTCAGACGT
  switch fluorescence ratio: 1 ± 0.011

## CGGTGAATAT
  switch fluorescence ratio: 0.9712 ± 0.0087

## GCGGTCACGG
  switch fluorescence ratio: 0.9974 ± 0.0092

## GACTGGAAGG
  switch fluorescence ratio: 1.01 ± 0.011

## TAGGGAAAAC
  switch fluorescence ratio: 1.05 ± 0.12

## GACGTGTCAA
  switch fluorescence ratio: 1.03 ± 0.019

## GTTGTGTGGG
  switch fluorescence ratio: 0.985 ± 0.035

## GGGTTGGTTT
  switch fluorescence ratio: 1.0207 ± 0.00021

## TGTGTTGGTC
  switch fluorescence ratio: 1.036 ± 0.0032

## GTGGCGGGGA
  switch fluorescence ratio: 1.02 ± 0.038

## GGGTTGCGGA
  switch fluorescence ratio: 0.966 ± 0.035

## TTTGGTTTCC
  switch fluorescence ratio: 1.01 ± 0.053

## TTTAATTGCC
  switch fluorescence ratio: 0.993 ± 0.081

## TAACTATATA
  switch fluorescence ratio: 1.06 ± 0.014

## GTTGAATTAT
  switch fluorescence ratio: 0.987 ± 0.016

## AACTCTGAGA
  switch fluorescence ratio: 1.03 ± 0.013

## GGGGGGGACC
  switch fluorescence ratio: 0.999 ± 0.017

## TACGATGTGG
  switch fluorescence ratio: 1.007 ± 0.0088

## CGATTTTGGG
  switch fluorescence ratio: 0.9844 ± 0.0047

## GAATACTTCG
  switch fluorescence ratio: 1.07 ± 0.016

## GGTAGTATCC
  switch fluorescence ratio: 1.02 ± 0.025

## CAATGAGTCT
  switch fluorescence ratio: 1.03 ± 0.035

Source: the supplement of paper PMC10126150
